Experimental data: patent US20210261648A1 (published 2021)
Changes are numbered by the printed parent chain.

T1: FcγRIIa type R (human, UniProt P12318 34-217)
T1 chain: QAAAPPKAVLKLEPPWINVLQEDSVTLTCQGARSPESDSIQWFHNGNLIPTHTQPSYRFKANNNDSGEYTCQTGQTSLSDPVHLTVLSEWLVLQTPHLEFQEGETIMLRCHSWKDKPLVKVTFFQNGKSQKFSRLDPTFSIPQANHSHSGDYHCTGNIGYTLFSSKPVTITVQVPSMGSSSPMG

T2: FcγRIIb (human, UniProt P31994 43-217)
T2 construct: extracellular domain; also called FcgRIIb; CD32B
T2 sequence (looked up): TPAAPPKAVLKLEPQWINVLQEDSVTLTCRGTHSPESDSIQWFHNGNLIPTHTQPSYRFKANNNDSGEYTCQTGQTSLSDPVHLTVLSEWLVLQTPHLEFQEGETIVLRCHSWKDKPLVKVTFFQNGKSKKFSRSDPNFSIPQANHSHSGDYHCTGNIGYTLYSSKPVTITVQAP

B1: IL6R-BP507/IL6R-L (antibody, human IgG1, kappa)
heavy: QVQLQESGPGLVKPSETLSLTCAVSGHSISHDHAWSWVRQPPGEGLEWIGFISYSGITNYNPSLQGRVTISRDNSKNTLYLQMNSLRAEDTAVYYCARSLARTTAMDYWGEGTLVTVSSASTKGPSVFPLAPSSKSTSGGTAALGCLVKDYFPEPVTVSWNSGALTSGVHTFPAVLQSSGLYSLSSVVTVPSSSLGTQTYICNVNHKPSNTKVDKKVEPKSCDKTHTCPPCPAPDLLGDDSVFLFPPKPKDTLMISRTPEVTCVVIDVAEEDGPVKFNWYVDGVEVHNAKTKPREEQYNSTYRVVSVLTVLHQDWLNGKEYKCKVSNKALPRPIEKTISKAKGQPREPQVYTLPPSRDELTKNQVSLTCLVKGFYPSDIAVEWESNGQPENNYKTTPPVLDSDGSFFLYSKLTVDKSRWQQGNVFSCSVMHEALHNHYTQESLSLSP
light: not shown
notes: Alterations in EU numbering, introduced into IL6R-B3
B2: IL6R-BP532/IL6R-L (antibody, human IgG1, kappa)
heavy: B1 heavy with A269S, P274E, Y298D, P398M
light: not shown
notes: as for B1
B3: IL6R-BP269/IL6R-L (antibody, human IgG1, kappa)
heavy: B1 heavy with D235E, I266V, A269S, P274E, Y298D, R332A
light: not shown
notes: as for B1
B4: IL6R-BP268/IL6R-L (antibody, human IgG1, kappa)
heavy: B1 heavy with I266V, A269S, P274E, Y298D, R332A
light: not shown
notes: as for B1
B5: IL6R-BP557/IL6R-L (antibody, human IgG1, kappa)
heavy: B1 heavy with D235E, I266V, A269G, E270D, P274E, Y298D
light: not shown
notes: as for B1
B6: IL6R-BP531/IL6R-L (antibody, human IgG1, kappa)
heavy: B1 heavy with A269G, P274E, Y298D, P398M
light: not shown
notes: as for B1
B7: IL6R-BP262/IL6R-L (antibody, human IgG1, kappa)
heavy: B1 heavy with D235E, I266V, A269S, P274E, R332A
light: not shown
notes: as for B1
B8: IL6R-BP553/IL6R-L (antibody, human IgG1, kappa)
heavy: B1 heavy with P274D
light: not shown
notes: as for B1
B9: IL6R-BP480/IL6R-L (antibody, human IgG1, kappa)
heavy: B1 heavy with I266V, V268L, A269S, E271D, P274E, R332A
light: not shown
notes: as for B1
B10: IL6R-BP481/IL6R-L (antibody, human IgG1, kappa)
heavy: B1 heavy with P274E, R332A
light: not shown
notes: as for B1
B11: IL6R-BP484/IL6R-L (antibody, human IgG1, kappa)
heavy: B1 heavy with I266V, E271D, P274E, R332A
light: not shown
notes: as for B1
B12: IL6R-BP537/IL6R-L (antibody, human IgG1, kappa)
heavy: B1 heavy with D235E, A269G, P274E
light: not shown
notes: as for B1
B13: IL6R-BP552/IL6R-L (antibody, human IgG1, kappa)
heavy: B1 heavy with P274D, Y298D
light: not shown
notes: as for B1
B14: IL6R-BP445/IL6R-L (antibody, human IgG1, kappa)
heavy: B1 heavy with P274E
light: not shown
notes: as for B1
B15: IL6R-BP490/IL6R-L (antibody, human IgG1, kappa)
heavy: B1 heavy with D235E, P274E
light: not shown
notes: as for B1
B16: IL6R-BP535/IL6R-L (antibody, human IgG1, kappa)
heavy: B1 heavy with A269G, P274E, Y298D, A329G, P398M
light: not shown
notes: as for B1
B17: IL6R-BP483/IL6R-L (antibody, human IgG1, kappa)
heavy: B1 heavy with I266V, V268L, P274E, R332A
light: not shown
notes: as for B1
B18: IL6R-BP555/IL6R-L (antibody, human IgG1, kappa)
heavy: B1 heavy with D235E, P274D, Y298D
light: not shown
notes: as for B1

Target: T1, FcγRIIa type R
Test: SPR (Biacore), captured antibody, soluble FcγR

Kd	Binder
100 nM	B1
94 nM	B2
2200 nM	B3
1800 nM	B4
850 nM	B5
120 nM	B6
2000 nM	B7
86 nM	B8
6300 nM	B9
400 nM	B10
780 nM	B11
270 nM	B12
97 nM	B13
80 nM	B14
110 nM	B15
92 nM	B16
1300 nM	B17
160 nM	B18

target: T2, FcγRIIb; test: SPR (Biacore), captured antibody, soluble FcγR

Kd	Binder
2.9 nM	B1
3.2 nM	B2
110 nM	B3
92 nM	B4
20 nM	B5
3.8 nM	B6
120 nM	B7
3.1 nM	B8
200 nM	B9
19 nM	B10
46 nM	B11
6.9 nM	B12
2.6 nM	B13
2.6 nM	B14
2.4 nM	B15
4 nM	B16
78 nM	B17
4.1 nM	B18

target: T3, FcγRIa (human, UniProt P12314 16-292); test: SPR (Biacore), captured antibody, soluble FcγR
T3 construct: Whole entry named; also called FcgRIa; CD64A
T3 sequence (P12314 16-292): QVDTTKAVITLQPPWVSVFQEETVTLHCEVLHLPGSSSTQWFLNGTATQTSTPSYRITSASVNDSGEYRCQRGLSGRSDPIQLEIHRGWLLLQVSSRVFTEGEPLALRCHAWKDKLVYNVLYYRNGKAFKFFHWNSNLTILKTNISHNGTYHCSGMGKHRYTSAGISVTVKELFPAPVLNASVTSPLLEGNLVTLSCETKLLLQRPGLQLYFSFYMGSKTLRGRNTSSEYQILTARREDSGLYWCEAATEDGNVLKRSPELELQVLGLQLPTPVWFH

Kd	Binder
2.6 nM	B1
12 nM	B2
14 nM	B3
4.5 nM	B4
9.4 nM	B6
10 nM	B7
3.4 nM	B8
1 nM	B10
0.82 nM	B11
29 nM	B12
3.2 nM	B13
2 nM	B14
4.5 nM	B15
11 nM	B16
1.3 nM	B17
9.4 nM	B18

Target: T1, FcγRIIa type R
Test: SPR (Biacore); parent = IL6R-B3/IL6R-L

KD(IIaR) of the parent polypeptide/KD(IIaR) of the altered polypeptide	Binder
0.5 fold	B3
0.6 fold	B4
0.5 fold	B7
2.8 fold	B10
1.4 fold	B11
13.8 fold	B14
0.8 fold	B17

target: T2, FcγRIIb; test: SPR (Biacore); parent = IL6R-B3/IL6R-L

KD(IIb) of the parent polypeptide/KD(IIb) of the altered polypeptide	Binder
27.4 fold	B3
33.7 fold	B4
25.8 fold	B7
160 fold	B10
67.8 fold	B11
1200 fold	B14
39.7 fold	B17
